What was measured:
Settings in all cases: Xenopus laevis; Oocyte
[1] = substrate: N[C@@H](Cc1c[nH]c2ccccc12)C(=O)O
Description: (§1) TP_TRANSPORTER: uptake in Xenopus laevis oocytes

[2] = substrate: N[C@@H](Cc1ccc(O)c(O)c1)C(=O)O
Description: as §1

[3] = substrate: N[C@@H](Cc1ccc(O)cc1)C(=O)O
Description: as §1

[4] = substrate: N[C@@H](Cc1ccccc1)C(=O)O
Description: as §1

[5] = substrate: N[C@H](Cc1ccccc1)C(=O)O
Description: as §1

B1: SLC16A10 protein (Homo sapiens), Q05BR4 (protein)
chain: MVLSQEEPDSARGTSEAQPLGPAPTGAAPPPGPGPSDSPEAAVEKVEVELAGPATAEPHEPPEPPEGGWGWLVMLAAMWCNGSVFGIQNACGVLFVSMLETFGSKDDDKMVFKTAWVGSLSMGMIFFCCPIVSVFTDLFGCRKTAVVGAAVGFVGLMSSSFVSSIEPLYLTYGIIFACGCSFAYQPSLVILGHYFKKRLGLVNGIVTAGSSVFTILLPLLLRVLIDSVGLFYTLRVLCIFMFVLFLAGFTYRPLATSTKDKESGGSGSSLFSRKKFSPPKKNFQFCHLQGDSLCSVGSWNTTCTFWILCALCSLGEYAPSLIMNITI
Km [1]: 452 µM
Km [2]: 1210 µM
Km [3]: 636 µM
Km [4]: 740 µM
Km [5]: 2300 µM
